This test deals with mCherry-GFP^Y39TAG amber suppression reporter. In words: Amber suppression in baculovirus-transduced Sf21 insect cells, flow cytometry. The format is cell-based, Spodoptera frugiperda. As to the method: Following standard protocols, insect cells of line Sf21 were cultured in a protein-free, serum-free standard culture medium for Spodoptera frugiperda cells (Sf-900™ III SFM) at 27° C. shaking at 180 rpm. The Sf21 cells were split every day to a density of 0.6×10^6 cells/ml or every third day to a density of 0.3×10^6 cells/ml.
Baculovirus shuttle vector (Bacmid) DNA containing an expression cassette encoding tRNA^Pyl, mCherry-GFP^Y39TAG and either PylRS^AF or NES-PylRS^AF was prepared using standard cloning and recombination procedures.
For transfection 3 ml/well of 0.3×10^6 Sf21 cells/ml were seeded in a 6-well cell culture multidish (Nunclon Delta Surface, Thermo scientific) and transfected with Bacmid DNA using a nonliposomal transfection reagent (FuGENE®HD Transfection Reagent, Promega) following the manufacturer's instructions. V0-virus was harvested 70 h post transfection and the V1-generation was started. Therefor, 25 ml Sf21 cells at 0.6×10^6 cells/ml were transfected with 3 ml of the Vo-virus. After cell proliferation stopped, the cultures were kept for another 48-60 h at 27° C. shaking at 180 rpm. The transfected cells were harvested by centrifugation (500 rpm, 10 min) and the supernatant (i.e., the V1-Virus) was stored at 4° C.
5-25 ml Sf21 cells at 0.6×10^6 cells/ml were transduced with V1-virus prepared by method (I) at a ratio of 100:1 vol/vol (cells:virus). One day afterwards, different amounts of UAA 1 (0-1 mM final concentration) was added to the cultures. After three days of culture, the cells were harvested by centrifugation (500 rpm, 10 min), cooled down to 4° C., resuspended in 2 ml sterile 1×PBS, filtered through a cell strainer (Falcon, 70 μm, Fisher Scientific) and kept on ice until analysis. Data for 500,000 cells of each sample was acquired and analyzed using a LSRFortessa SORP Cell Analyzer (Becton, Dickinson and Company) and the FlowJo software (FlowJo Enterprise). Cells were gated first by cell type (using FSC-A×SSC-A parameters) and then by single cell (FSC-A×SSC-W). GFP fluorescence was acquired in the 488-530/30 channel and mCherry fluorescence in the 561-610/20 channel.
Sf21 cells were transduced with Bacmid DNA encoding tRNA^Pyl, mCherry-GFP^Y39TAG, and either PylRS^AF or NES-PylRS^AF, cultured with different concentrations (0, 10, 50, 100, 250, 500 or 1000 μM) of UAA 1 (BOC) and analyzed using methods (I) and (J) described herein.
mCherry fluorescence of the cells indicated successful transduction with Bacmid DNA. GFP fluorescence of the cells indicated successful suppression of the amber stop codon encoding amino acid position 39 of the GFP^Y39TAG reporter gene by incorporation of UAA 1 at said position.
A general note: Flow cytometry measures light scatter and fluorescence of single cells or particles in a stream.

B1: PylRS^AF: mutant M. mazei pyrrolysyl tRNA synthetase comprising amino acid substitutions Y306A and Y384F, SEQ ID NO:2 (protein)
chain: MDKKPLNTLISATGLWMSRTGTIHKIKHHEVSRSKIYIEMACGDHLVVNNSRSSRTARALRHHKYRKTCKRCRVSDEDLNKFLTKANEDQTSVKVKVVSAPTRTKKAMPKSVARAPKPLENTEAAQAQPSGSKFSPAIPVSTQESVSVPASVSTSISSISTGATASALVKGNTNPITSMSAPVQASAPALTKSQTDRLEVLLNPKDEISLNSGKPFRELESELLSRRKKDLQQIYAEERENYLGKLEREITRFFVDRGFLEIKSPILIPLEYIERMGIDNDTELSKQIFRVDKNFCLRPMLAPNLANYLRKLDRALPDPIKIFEIGPCYRKESDGKEHLEEFTMLNFCQMGSGCTRENLESIITDFLNHLGIDFKIVGDSCMVFGDTLDVMHGDLELSSAVVGPIPLDREWGIDKPWIGAGFGLERLLKVKHDFKNIKRAARSESYYNGISTNL
modifications: Methanosarcina mazei PylRS Y306A, Y384F mutant; MUTAGEN 306 Y306A mutation; MUTAGEN 384 Y384F mutation
As to B1, the “Cells showing both mCherry and GFP fluorescence” value reads like this: (Sf21, UAA 1 conc. 0 μM) 1.4%; (Sf21, UAA 1 conc. 10 μM) 20.1%; (Sf21, UAA 1 conc. 50 μM) 56.2%; (Sf21, UAA 1 conc. 100 μM) 67.1%; (Sf21, UAA 1 conc. 250 μM) 76.5%; (Sf21, UAA 1 conc. 500 μM) 81.6%. For the same molecule, the “Cells showing both mCherry and GFP fluorescence” value (Sf21, UAA 1 conc. 1000 μM) came to 85.8%. For the same molecule, the “Cells showing only mCherry fluorescence” value (Sf21, UAA 1 conc. 0 μM) is reported as 94.6%; the “Cells showing only mCherry fluorescence” value (Sf21, UAA 1 conc. 10 μM) was determined as 75.8%; the “Cells showing only mCherry fluorescence” value (Sf21, UAA 1 conc. 50 μM) is listed as 39.3%; the “Cells showing only mCherry fluorescence” value (Sf21, UAA 1 conc. 100 μM) is recorded as 25.9%; the “Cells showing only mCherry fluorescence” value (Sf21, UAA 1 conc. 250 μM) is reported as 13.9%; the “Cells showing only mCherry fluorescence” value (Sf21, UAA 1 conc. 500 μM) was 9.1%. Besides, the “Cells showing only mCherry fluorescence” value (Sf21, UAA 1 conc. 1000 μM) is on record as 5.7%.

Values taken from US12723243B2, “Archaeal pyrrolysyl tRNA synthetases for orthogonal use” (European Molecular Biology Laboratory, priority 2016, dated 2026).
